Measured values published in patent publication US20040253233A1 (CENTRO DE INMUNOLOGIA MOLECULAR CIM, published 2004).

Biological target: T1, murine monoclonal antibody P3
T1 construct: Murine IgM with kappa light chain from hybridoma ECACC 94113026, coated on the ELISA plate; FR4 segments are printed short; also called Mab P3; MAb P3
Test: ELISA, plate coated with Mab P3, purified chimeric 1E10 detected with goat anti-human antibody-alkaline phosphatase, absorbance at 405 nm
Protocol: For recombinant MAb 1 E10, Microtiter plates were coated with Mab P3. After washing with PBST (saline phosphate buffered solution containing 0.05% Tween 20), unspecific binding was blockade with bovine sera albumin (BSA) 1% in PBST, incubated for one hour at 37° C.
The wells were washed and incubated for 1 hour at 37° C. with purified recombinant Mab 1E10. The wells were washed with PBST and a goat anti-human antibody conjugated with alkaline phosphatase was added and incubated at 37° C. for one hour. Finally, the wells were washed with PBST and the substrate buffer containing p-nitrophenylphosphate was added.

T1 sequence (VH, as listed by the source, chain 1 of 2): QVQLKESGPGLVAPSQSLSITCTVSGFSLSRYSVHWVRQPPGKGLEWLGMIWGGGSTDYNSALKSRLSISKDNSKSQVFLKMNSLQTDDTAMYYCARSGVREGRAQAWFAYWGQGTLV
T1 sequence (V domain, as listed by the source, chain 2 of 2): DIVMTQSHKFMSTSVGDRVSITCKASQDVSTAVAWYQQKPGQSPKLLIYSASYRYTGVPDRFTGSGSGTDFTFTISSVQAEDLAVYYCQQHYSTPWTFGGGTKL

binding result: binds
B1: chimeric Mab 1E10 (antibody, V domains shown)
VH: QVQLQQSGAELVKPGASVKLSCKASGYTFTSYDINWVRQRPEQGLEWIGWIFPGDGSTKYNEKFKGKATLTTDKSSSTAYMQLSRLTSEDSAVYFCAREDYYDNSYYFDYWGQGTTLTV
VL: DIQMTQTTSSLSASLGDRVTISCRASQDISNYLNWYQQKPDGTVKLLIYYTSRLHSGVPSRFSGSGSGTDYSLTISNLEQEDIATYFCQQGNTLPWTFGGGTKLESK
notes: FR4 segments are printed short, so the variable domains may lack their last residues; also called Mab 1E10 chimeric; recombinant MAb 1E10
